These results are taken from publication PMC11730744.

In test [1] the target is Orai1β-eGFP (UniProt Q96D31). The experiment in a line: FRET or BRET; confocal FRET in living WT HEK293 cells co-expressing Orai1 variant-eGFP and STIM-mCherry (CMV promoter); stimulated with 2 µM thapsigargin for 1 min, 1.8 mM extracellular Ca2+; whole cell averages. (Bioluminescence resonance energy transfer reports proximity on the nanometre scale.)
In test [2] the target is Orai1β-eGFP (UniProt Q96D31). The experiment in a line: FRET or BRET; confocal FRET in living WT HEK293 cells co-expressing Orai1 variant-eGFP and STIM-mCherry (CMV promoter); resting (control) cells, medium with 1.8 mM Ca2+; whole cell averages.

Sequence of UniProt Q96D31 (Q96D31 whole entry): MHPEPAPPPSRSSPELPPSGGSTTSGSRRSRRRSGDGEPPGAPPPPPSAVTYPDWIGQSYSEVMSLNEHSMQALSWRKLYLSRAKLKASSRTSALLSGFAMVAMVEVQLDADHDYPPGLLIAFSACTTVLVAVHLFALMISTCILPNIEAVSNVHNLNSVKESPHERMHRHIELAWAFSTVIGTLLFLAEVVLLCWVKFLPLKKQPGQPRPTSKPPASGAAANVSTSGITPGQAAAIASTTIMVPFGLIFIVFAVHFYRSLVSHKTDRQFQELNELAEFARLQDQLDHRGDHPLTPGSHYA

Regarding “STIM2-mCherry (from UniProt Q9P246 15-746) (natural protein)”, in the test with Orai1β-eGFP [1], the mean nFRET (2 µM TG, 1 min) stood at 0.114. The mean nFRET (resting cells) with Orai1β-eGFP [2] amounted to 0.074.
